Reference: publication PMC9276948

Target: GST-MoMkk1 (Magnaporthe oryzae) (UniProt G4N6Z6)
Test: MST

Row | Substance | Kd
1 | His-MoPtc2 (enzyme) | 2270 nM
2 | His-MoPtc1 (enzyme) | 1050 nM
